Laboratory results: US20200299413A1 (BIOMUNEX PHARMACEUTICALS, published 2020)

Target: CD38 on RPMI-8226 multiple myeloma cells (UniProt P28907 1-300, limits assumed)
Experiment: cell-based or functional assay

ADCC (51Chromium release) EC50 on RPMI-8226 cells, non-pre-activated MNC effectors: 0.3 nM
B1: parental anti-CD38 mAb (daratumumab) (antibody, V domains shown)
VH: EVQLLESGGGLVQPGGSLRLSCAVSGFTFNSFAMSWVRQAPGKGLEWVSAISGSGGGTYYADSVKGRFTISRDNSKNTLYLQMNSLRAEDTAVYFCAKDKILWFGEPVFDYWGQGTLVTVSS
VL: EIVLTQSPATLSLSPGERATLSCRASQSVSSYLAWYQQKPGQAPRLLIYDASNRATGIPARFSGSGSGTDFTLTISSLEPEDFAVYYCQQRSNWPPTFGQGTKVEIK
